# Data as given in the supplement of paper PMC5998384.
# Tests used:
# [1] = tested on: HeLa Kyoto; assay: melting temperature (median over replicates), in situ; higher = more thermally stable
# [2] = tested on: HeLa Kyoto; assay: thermal stability score vs G1/S (z-score of summed log2 fold changes over temperatures); higher = more thermally stable than in G1/S
# [3] = cell cycle stage: early G1 (4.5 h after nocodazole release)
# 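Throughout, for melting temperature (median over replicates), in situ: HeLa Kyoto cells synchronized by double thymidine or nocodazole block, proteins quantified by TMT10plex mass spectrometry, three independent biological replicates.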
# 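Throughout, for thermal stability score vs G1/S (z-score of summed log2 fold changes over temperatures): synchronized HeLa Kyoto cells, proteins quantified by TMT10plex mass spectrometry, three biological replicates, mitosis taken 0.5 h after nocodazole release, G1/S directly after double thymidine block.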
# Chain of MARK3 (chain, as listed by the source): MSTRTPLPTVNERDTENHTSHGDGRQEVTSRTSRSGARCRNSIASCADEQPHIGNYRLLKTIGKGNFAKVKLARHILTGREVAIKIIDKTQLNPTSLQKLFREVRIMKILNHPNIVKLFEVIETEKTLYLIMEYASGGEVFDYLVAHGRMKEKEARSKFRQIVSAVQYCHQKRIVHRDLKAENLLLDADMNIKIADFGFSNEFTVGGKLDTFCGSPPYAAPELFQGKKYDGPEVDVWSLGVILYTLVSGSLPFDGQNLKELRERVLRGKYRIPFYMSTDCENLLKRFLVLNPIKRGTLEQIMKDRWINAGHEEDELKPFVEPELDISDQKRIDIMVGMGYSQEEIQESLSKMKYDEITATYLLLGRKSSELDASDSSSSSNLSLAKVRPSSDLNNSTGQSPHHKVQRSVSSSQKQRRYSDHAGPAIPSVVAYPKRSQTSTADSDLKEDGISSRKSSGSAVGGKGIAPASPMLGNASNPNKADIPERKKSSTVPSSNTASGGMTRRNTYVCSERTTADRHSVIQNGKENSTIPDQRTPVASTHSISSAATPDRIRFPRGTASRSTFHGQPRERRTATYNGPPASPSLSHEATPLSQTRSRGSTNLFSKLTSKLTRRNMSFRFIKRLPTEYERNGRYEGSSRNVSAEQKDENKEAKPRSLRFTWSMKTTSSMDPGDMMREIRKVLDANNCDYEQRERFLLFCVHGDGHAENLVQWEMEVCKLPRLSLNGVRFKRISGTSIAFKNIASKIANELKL
Substance,melting temperature ([1]; cell cycle stage: G1/S) [°C],melting temperature ([1]; cell cycle stage: mitosis) [°C],"thermal stability score [2, 3]",thermal stability score ([2]; cell cycle stage: mitosis)
MSLLNCENSCGSSQSESDCCVAMASSCSAVTKDDSVGGTASTGNLSSSFMEEIQGYDVEFDPPLESKYECPICLMALREAVQTPCGHRFCKACIIKSIRDAGHKCPVDNEILLENQLFPDNFAKREILSLMVKCPNEGCLHKMELRHLEDHQAHCEFALMDCPQCQRPFQKFHINIHILKDCPRRQVSCDNCAASMAFEDKEIHDQNCPLANVICEYCNTILIREQMPNHYDLDCPTAPIPCTFSTFGCHEKMQRNHLARHLQENTQSHMRMLAQAVHSLSVIPDSGYISEVRNFQETIHQLEGRLVRQDHQIRELTAKMETQSMYVSELKRTIRTLEDKVAEIEAQQCNGIYIWKIGNFGMHLKCQEEEKPVVIHSPGFYTGKPGYKLCMRLHLQLPTAQRCANYISLFVHTMQGEYDSHLPWPFQGTIRLTILDQSEAPVRQNHEEIMDAKPELLAFQRPTIPRNPKGFGYVTFMHLEALRQRTFIKDDTLLVRCEVSTRFDMGSLRREGFQPRSTDAGV [TRAF6],51.5,51.3,0.286,-0.125
MDLAANEISIYDKLSETVDLVRQTGHQCGMSEKAIEKFIRQLLEKNEPQRPPPQYPLLIVVYKVLATLGLILLTAYFVIQPFSPLAPEPVLSGAHTWRSLIHHIRLMSLPIAKKYMSENKGVPLHGGDEDRPFPDFDPWWTNDCEQNESEPIPANCTGCAQKHLKVMLLEDAPRKFERLHPLVIKTGKPLLEEEIQHFLCQYPEATEGFSEGFFAKWWRCFPERWFPFPYPWRRPLNRSQMLRELFPVFTHLPFPKDASLNKCSFLHPEPVVGSKMHKMPDLFIIGSGEAMLQLIPPFQCRRHCQSVAMPIEPGDIGYVDTTHWKVYVIARGVQPLVICDGTAFSEL [C6ORF89],53.2,–,0.0285,-2.22
MASASSGPSSSVGFSSFDPAVPSCTLSSAASGIKRPMASEVLEARQDSYISLVPYASGMPIKKIGHRSVDSSGETTYKKTTSSALKGAIQLGITHTVGSLSTKPERDVLMQDFYVVESIFFPSEGSNLTPAHHYNDFRFKTYAPVAFRYFRELFGIRPDDYLYSLCSEPLIELCSSGASGSLFYVSSDDEFIIKTVQHKEAEFLQKLLPGYYMNLNQNPRTLLPKFYGLYCVQAGGKNIRIVVMNNLLPRSVKMHIKYDLKGSTYKRRASQKEREKPLPTFKDLDFLQDIPDGLFLDADMYNALCKTLQRDCLVLQSFKIMDYSLLMSIHNIDHAQREPLSSETQYSVDTRRPAPQKALYSTAMESIQGEARRGGTMETDDHMGGIPARNSKGERLLLYIGIIDILQSYRFVKKLEHSWKALVHDGDTVSVHRPGFYAERFQRFMCNTVFKKIPLKPSPSKKFRSGSSFSRRAGSSGNSCITYQPSVSGEHKAQVTTKAEVEPGVHLGRPDVLPQTPPLEEISEGSPIPDPSFSPLVGETLQMLTTSTTLEKLEVAESEFTH [PIP5K1A],51.4,51.5,1.38,1.13
MAIAQLATEYVFSDFLLKEPTEPKFKGLRLELAVDKMVTCIAVGLPLLLISLAFAQEISIGTQISCFSPSSFSWRQAAFVDSYCWAAVQQKNSLQSESGNLPLWLHKFFPYILLLFAILLYLPPLFWRFAAAPHICSDLKFIMEELDKVYNRAIKAAKSARDLDMRDGACSVPGVTENLGQSLWEVSESHFKYPIVEQYLKTKKNSNNLIIKYISCRLLTLIIILLACIYLGYYFSLSSLSDEFVCSIKSGILRNDSTVPDQFQCKLIAVGIFQLLSVINLVVYVLLAPVVVYTLFVPFRQKTDVLKVYEILPTFDVLHFKSEGYNDLSLYNLFLEENISEVKSYKCLKVLENIKSSGQGIDPMLLLTNLGMIKMDVVDGKTPMSAEMREEQGNQTAELQGMNIDSETKANNGEKNARQRLLDSSC [PANX1],57.4,55.7,-1.3,-1.3
MTQNKLKLCSKANVYTEVPDGGWGWAVAVSFFFVEVFTYGIIKTFGVFFNDLMDSFNESNSRISWIISICVFVLTFSAPLATVLSNRFGHRLVVMLGGLLVSTGMVAASFSQEVSHMYVAIGIISGLGYCFSFLPTVTILSQYFGKRRSIVTAVASTGECFAVFAFAPAIMALKERIGWRYSLLFVGLLQLNIVIFGALLRPIFIRGPASPKIVIQENRKEAQYMLENEKTRTSIDSIDSGVELTTSPKNVPTHTNLELEPKADMQQVLVKTSPRPSEKKAPLLDFSILKEKSFICYALFGLFATLGFFAPSLYIIPLGISLGIDQDRAAFLLSTMAIAEVFGRIGAGFVLNREPIRKIYIELICVILLTVSLFAFTFATEFWGLMSCSIFFGFMVGTIGGTHIPLLAEDDVVGIEKMSSAAGVYIFIQSIAGLAGPPLAGLLVDQSKIYSRAFYSCAAGMALAAVCLALVRPCKMGLCQHHHSGETKVVSHRGKTLQDIPEDFLEMDLAKNEHRVHVQMEPV [SLC16A6],54.8,54.4,-2.68,-4.18
MGSQGSPVKSYDYLLKFLLVGDSDVGKGEILESLQDGAAESPYAYSNGIDYKTTTILLDGRRVKLELWDTSGQGRFCTIFRSYSRGAQGILLVYDITNRWSFDGIDRWIKEIDEHAPGVPRILVGNRLHLAFKRQVPTEQARAYAEKNCMTFFEVSPLCNFNVIESFTELSRIVLMRHGMEKIWRPNRVFSLQDLCCRAIVSCTPVHLIDKLPLPVTIKSHLKSFSMANGMNAVMMHGRSYSLASGAGGGGSKGNSLKRSKSIRPPQSPPQNCSRSNCKIS [RAB40C],–,–,-0.589,-0.612
MTGEKIRSLRRDHKPSKEEGDLLEPGDEEAAAALGGTFTRSRIGKGGKACHKIFSNHHHRLQLKAAPASSNPPGAPALPLHNSSVTANSQSPALLAGTNPVAVVADGGSCPAHYPVHECVFKGDVRRLSSLIRTHNIGQKDNHGNTPLHLAVMLGNKECAHLLLAHNAPVKVKNAQGWSPLAEAISYGDRQMITALLRKLKQQSRESVEEKRPRLLKALKELGDFYLELHWDFQSWVPLLSRILPSDACKIYKQGINIRLDTTLIDFTDMKCQRGDLSFIFNGDAAPSESFVVLDNEQKVYQRIHHEESEMETEEEVDILMSSDIYSATLSTKSISFTRAQTGWLFREDKTERVGNFLADFYLVNGLVLESRKRREHLSEEDILRNKAIMESLSKGGNIMEQNFEPIRRQSLTPPPQNTITWEEYISAENGKAPHLGRELVCKESKKTFKATIAMSQEFPLGIELLLNVLEVVAPFKHFNKLREFVQMKLPPGFPVKLDIPVFPTITATVTFQEFRYDEFDGSIFTIPDDYKEDPSRFPDL [ANKRD13C],–,–,-0.894,-0.663
MAAPLVLVLVVAVTVRAALFRSSLAEFISERVEVVSPLSSWKRVVEGLSLLDLGVSPYSGAVFHETPLIIYLFHFLIDYAELVFMITDALTAIALYFAIQDFNKVVFKKQKLLLELDQYAPDVAELIRTPMEMRYIPLKVALFYLLNPYTILSCVAKSTCAINNTLIAFFILTTIKGSAFLSAIFLALATYQSLYPLTLFVPGLLYLLQRQYIPVKMKSKAFWIFSWEYAMMYVGSLVVIICLSFFLLSSWDFIPAVYGFILSVPDLTPNIGLFWYFFAEMFEHFSLFFVCVFQINVFFYTIPLAIKLKEHPIFFMFIQIAVIAIFKSYPTVGDVALYMAFFPVWNHLYRFLRNIFVLTCIIIVCSLLFPVLWHLWIYAGSANSNFFYAITLTFNVGQILLISDYFYAFLRREYYLTHGLYLTAKDGTEAMLVLK [PIGU],–,–,0.038,-0.34
MARK3,–,–,-0.371,0.161
MEINTKLLISVTCISFFTFQLLFYFVSYWFSAKVSPGFNSLSFKKKIEWNSRVVSTCHSLVVGIFGLYIFLFDEATKADPLWGGPSLANVNIAIASGYLISDLSIIILYWKVIGDKFFIMHHCASLYAYYLVLKNGVLAYIGNFRLLAELSSPFVNQRWFFEALKYPKFSKAIVINGILMTVVFFIVRIASMLPHYGFMYSVYGTEPYIRLGVLIQLSWVISCVVLDVMNVMWMIKISKGCIKVISHIRQEKAKNSLQNGKLD [TMEM56],–,–,0.000211,-0.867
MLLLVTSLLLCELPHPAFLLIPEKSDLRTVAPASSLNVRFDSRTMNLSWDCQENTTFSKCFLTDKKNRVVEPRLSNNECSCTFREICLHEGVTFEVHVNTSQRGFQQKLLYPNSGREGTAAQNFSCFIYNADLMNCTWARGPTAPRDVQYFLYIRNSKRRREIRCPYYIQDSGTHVGCHLDNLSGLTSRNYFLVNGTSREIGIQFFDSLLDTKKIERFNPPSNVTVRCNTTHCLVRWKQPRTYQKLSYLDFQYQLDVHRKNTQPGTENLLINVSGDLENRYNFPSSEPRAKHSVKIRAADVRILNWSSWSEAIEFGSDDGNLGSVYIYVLLIVGTLVCGIVLGFLFKRFLRIQRLFPPVPQIKDKLNDNHEVEDEIIWEEFTPEEGKGYREEVLTVKEIT [CSF2RA],–,–,-1.1,-1.35
MARKALKLASWTSMALAASGIYFYSNKYLDPNDFGAVRVGRAVATTAVISYDYLTSLKSVPYGSEEYLQLRSKSWPVFLQVHLRSARRLCELCCANRGTFIKVGQHLGALDYLLPEEYTSTLKVLHSQAPQSSMQEIRQVIREDLGKEIHDLFQSFDDTPLGTASLAQVHKAVLHDGRTVAVKVQHPKVRAQSSKDILLMEVLVLAVKQLFPEFEFMWLVDEAKKNLPLELDFLNEGRNAEKVSQMLRHFDFLKVPRIHWDLSTERVLLMEFVDGGQVNDRDYMERNKIDVNEISRHLGKMYSEMIFVNGFVHCDPHPGNVLVRKHPGTGKAEIVLLDHGLYQMLTEEFRLNYCHLWQSLIWTDMKRVKEYSQRLGAGDLYPLFACMLTARSWDSVNRGISQAPVTATEDLEIRNNAANYLPQISHLLNHVPRQMLLILKTNDLLRGIEAALGTRASASSFLNMSRCCIRALAEHKKKNTCSFFRRTQISFSEAFNLWQINLHELILRVKGLKLADRVLALICWLFPAPL [ADCK1],–,–,0.277,-0.197
MSEDEEKVKLRRLEPAIQKFIKIVIPTDLERLRKHQINIEKYQRCRIWDKLHEEHINAGRTVQQLRSNIREIEKLCLKVRKDDLVLLKRMIDPVKEEASAATAEFLQLHLESVEELKKQFNDEETLLQPPLTRSMTVGGAFHTTEAEASSQSLTQIYALPEIPQDQNAAESWETLEADLIELSQLVTDFSLLVNSQQEKIDSIADHVNSAAVNVEEGTKNLGKAAKYKLAALPVAGALIGGMVGGPIGLLAGFKVAGIAAALGGGVLGFTGGKLIQRKKQKMMEKLTSSCPDLPSQTDKKCS [STX17],–,–,-0.17,0.13
MFPREKTWNISFAGCGFLGVYYVGVASCLREHAPFLVANATHIYGASAGALTATALVTGVCLGEAGAKFIEVSKEARKRFLGPLHPSFNLVKIIRSFLLKVLPADSHEHASGRLGISLTRVSDGENVIISHFNSKDELIQANVCSGFIPVYCGLIPPSLQGVRYVDGGISDNLPLYELKNTITVSPFSGESDICPQDSSTNIHELRVTNTSIQFNLRNLYRLSKALFPPEPLVLREMCKQGYRDGLRFLQRNGLLNRPNPLLALPPARPHGPEDKDQAVESAQAEDYSQLPGEDHILEHLPARLNEALLEACVEPTDLLTTLSNMLPVRLATAMMVPYTLPLESALSFTIRLLEWLPDVPEDIRWMKEQTGSICQYLVMRAKRKLGRHLPSRLPEQVELRRVQSLPSVPLSCAAYREALPGWMRNNLSLGDALAKWEECQRQLLLGLFCTNVAFPPEALRMRAPADPAPAPADPASPQHQLAGPAPLLSTPAPEARPVIGALGL [PNPLA2],–,–,-0.911,1.32
